# Experimental data: PMC6625514
# Biological target: CD71 (transferrin receptor), used in ELISA (UniProt P02786 89-760)
# Assay: ELISA
# CD71 (transferrin receptor), used in ELISA, sequence (P02786 89-760): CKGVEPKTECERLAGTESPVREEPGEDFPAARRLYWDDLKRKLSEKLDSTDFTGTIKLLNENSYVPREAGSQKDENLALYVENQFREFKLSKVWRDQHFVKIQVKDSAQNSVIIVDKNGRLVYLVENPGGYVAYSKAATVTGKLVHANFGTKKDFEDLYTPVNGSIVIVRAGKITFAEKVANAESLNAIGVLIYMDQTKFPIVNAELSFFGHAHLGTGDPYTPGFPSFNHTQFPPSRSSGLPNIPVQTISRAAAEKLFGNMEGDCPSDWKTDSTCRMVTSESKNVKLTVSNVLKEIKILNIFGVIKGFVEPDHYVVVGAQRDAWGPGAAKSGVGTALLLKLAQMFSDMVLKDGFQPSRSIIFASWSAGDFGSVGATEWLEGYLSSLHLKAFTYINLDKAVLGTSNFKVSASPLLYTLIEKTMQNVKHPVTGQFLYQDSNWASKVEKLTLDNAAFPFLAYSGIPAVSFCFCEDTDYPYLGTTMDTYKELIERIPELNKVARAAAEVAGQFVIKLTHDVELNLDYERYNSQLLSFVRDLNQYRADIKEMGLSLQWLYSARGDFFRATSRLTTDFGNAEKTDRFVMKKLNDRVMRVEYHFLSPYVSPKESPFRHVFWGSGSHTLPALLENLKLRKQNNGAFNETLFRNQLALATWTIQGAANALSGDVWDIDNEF
binder,measurement,value
XQ-2d (ssDNA) DNA: ACTCATAGGGTTAGGGGCTGCTGGCCAGATACTCAGATGGTAGGGTTACTATGAGC,Kd,50.5 ± 27.3 nM
